Test results: patent US20180237508A1 (INTERNATIONA DRUG DEVELOPMENT BIOTECH, published 2018)
Ends that are not written are not given here.

B1: Murine monoclonal antibody D-A10 (antibody, V domains shown)
VH: EVQLLETGGGLVQPGGSRGLSCEGSGFTFSGFWMSWVRQTPGKTLEWIGDINSDGSAIKYAPSIKDRFTIFRDNDKSTLYLQMSNVRSEDTATYFCIAHYSGGGFAYWGQGTSVTVSS
VL: NIVMTQAAPSVPVTPGESVSISCRSSKSLLYSNGNTYLYWFLQRPGQSPQRLIYYMSNLASGVPDRFSGRGSGTDFTLRISRVEAEDVGVYYCMQSLEYPFTFGGGTKLEIK
notes: Murine IgG from a hybridoma, purified from ascitic fluid on protein A; also called mD-A10 Mab; mD-A10
B2: Unconjugated peptide 1 (peptide)
peptide: AEQRGELAIKDANAKLSELEAALQRAKQDC

Key:
Unconjugated peptide 1 = target: B2; assay: ELISA, coated unconjugated peptide
Method: (§1) The CK8 peptides, coupled or not with the bovine serum albumin (BSA) at the SH group of the C-terminal cysteine, were immobilized (0.5 μg/ml or 1 μg/ml respectively) at the bottom of the wells of a 96 well plate overnight at room temperature. Unbound peptides are washed away with purified water supplemented by Tween (Sigma, St Quentin Fallavier, France). The wells are then saturated with a saline phosphate buffer solution (PBS) containing 5% BSA for 2 hours at room temperature (RT). Then the plates are washed away with purified water supplemented by Tween. The Mab binding to the coated peptides is tested at different Mab concentrations following an incubation for 2 hours at RT in PBS (Invitrogen, Villebon sur Yvette, France) supplemented by 1% Bovine Serum Albumin (Sigma, St Quentin Fallavier, France). Unbound Mabs are washed away with purified water supplemented by Tween. […] The absorbance is read at 450 nm and corrected at 630 nm. The specific requirements for the different experiments are detailed below.
(§2) The unconjugated peptides 1, 5 to 28 of human CK8 were immobilized (2 μg/ml) at the bottom of a 96-wells plate. Different Mab concentrations (from 10 μg/mL then diluted at 1/10) were incubated for 2 hours at room temperature alone or with each peptide tested. The optical density values (OD) was read at 450 nm and corrected at 630 nm. The results are shown in FIG. 13A (related to mD-A10) or on FIG. 13B (related to M20).

Unconjugated peptide 5 = target: T1, Unconjugated peptide 5 (human); assay: ELISA, coated unconjugated peptide
T1 peptide: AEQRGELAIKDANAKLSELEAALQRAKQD
Method: as §1, §2

Unconjugated peptide 6 = target: T2, Unconjugated peptide 6 (human); assay: ELISA, coated unconjugated peptide
T2 peptide: AALQRAKQD
Method: as §1, §2

Unconjugated peptide 7 = target: T3, Unconjugated peptide 7 (human); assay: ELISA, coated unconjugated peptide
T3 peptide: EAALQRAKQD
Method: as §1, §2

Unconjugated peptide 8 = target: T4, Unconjugated peptide 8 (human); assay: ELISA, coated unconjugated peptide
T4 peptide: LEAALQRAKQD
Method: as §1, §2

Unconjugated peptide 9 = target: T5, Unconjugated peptide 9 (human); assay: ELISA, coated unconjugated peptide
T5 peptide: ELEAALQRAKQD
Method: as §1, §2

Unconjugated peptide 10 = target: T6, Unconjugated peptide 10 (human); assay: ELISA, coated unconjugated peptide
T6 peptide: SELEAALQRAKQD
Method: as §1, §2

Unconjugated peptide 11 = target: T7, Unconjugated peptide 11 (human); assay: ELISA, coated unconjugated peptide
T7 peptide: LSELEAALQRAKQD
Method: as §1, §2

Unconjugated peptide 12 = target: T8, Unconjugated peptide 12 (human); assay: ELISA, coated unconjugated peptide
T8 peptide: KLSELEAALQRAKQD
Method: as §1, §2

Unconjugated peptide 13 = target: T9, Unconjugated peptide 13 (human); assay: ELISA, coated unconjugated peptide
T9 peptide: AKLSELEAALQRAKQD
Method: as §1, §2

Unconjugated peptide 14 = target: T10, Unconjugated peptide 14 (human); assay: ELISA, coated unconjugated peptide
T10 peptide: NAKLSELEAALQRAKQD
Method: as §1, §2

Unconjugated peptide 15 = target: T11, Unconjugated peptide 15 (human); assay: ELISA, coated unconjugated peptide
T11 peptide: ANAKLSELEAALQRAKQD
Method: as §1, §2

Unconjugated peptide 16 = target: T12, Unconjugated peptide 16 (human); assay: ELISA, coated unconjugated peptide
T12 peptide: DANAKLSELEAALQRAKQD
Method: as §1, §2

Unconjugated peptide 17 = target: T13, Unconjugated peptide 17 (human); assay: ELISA, coated unconjugated peptide
T13 peptide: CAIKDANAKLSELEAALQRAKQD
Method: as §1, §2

Unconjugated peptide 18 = target: T14, Unconjugated peptide 18 (human); assay: ELISA, coated unconjugated peptide
T14 peptide: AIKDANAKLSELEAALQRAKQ
Method: as §1, §2

Unconjugated peptide 19 = target: T15, Unconjugated peptide 19 (human); assay: ELISA, coated unconjugated peptide
T15 peptide: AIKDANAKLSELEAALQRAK
Method: as §1, §2

Unconjugated peptide 20 = target: T16, Unconjugated peptide 20 (human); assay: ELISA, coated unconjugated peptide
T16 peptide: AIKDANAKLSELEAALQRA
Method: as §1, §2

Unconjugated peptide 21 = target: T17, Unconjugated peptide 21 (human); assay: ELISA, coated unconjugated peptide
T17 peptide: AIKDANAKLSELEAALQR
Method: as §1, §2

Unconjugated peptide 22 = target: T18, Unconjugated peptide 22 (human); assay: ELISA, coated unconjugated peptide
T18 peptide: AIKDANAKLSELEAALQ
Method: as §1, §2

Unconjugated peptide 23 = Unconjugated peptide 23 (human); assay: ELISA, coated unconjugated peptide
Method: as §1, §2

Unconjugated peptide 24 = target: T19, Unconjugated peptide 24 (human); assay: ELISA, coated unconjugated peptide
T19 peptide: AIKDANAKLSELEAA
Method: as §1, §2

Unconjugated peptide 25 = target: T20, Unconjugated peptide 25 (human); assay: ELISA, coated unconjugated peptide
T20 peptide: AIKDANAKLSELEA
Method: as §1, §2

Unconjugated peptide 26 = target: T21, Unconjugated peptide 26 (human); assay: ELISA, coated unconjugated peptide
T21 peptide: AIKDANAKLSELE
Method: as §1, §2

Unconjugated peptide 27 = target: T22, Unconjugated peptide 27 (human); assay: ELISA, coated unconjugated peptide
T22 peptide: AIKDANAKLSEL
Method: as §1, §2

Unconjugated peptide 28 = target: T23, Unconjugated peptide 28 (human); assay: ELISA, coated unconjugated peptide
T23 peptide: AIKDANAKLSE
Method: as §1, §2

BSA conjugated peptide 3 = target: T24, BSA conjugated peptide 3 (human, also: conjugated to BSA via the thiol of the C-terminal Cys); assay: ELISA, coated BSA conjugated peptide
T24 peptide: AALQRAKQDC(BSA)
Method: as §1
(§3) Different Mab concentrations (from 10 μg/mL then diluted at 1/10) were incubated for 2 hours at room temperature with either the peptide 1, peptide 2, peptide 3, peptide 4 or peptide 17. The optical density values (OD) was read at 450 nm and corrected at 630 nm.

BSA conjugated peptide 4 = target: T25, BSA conjugated peptide 4 (human, also: conjugated to BSA via the thiol of the C-terminal Cys); assay: ELISA, coated BSA conjugated peptide
T25 peptide: SELEAALQRAKQDC(BSA)
Method: as §1, §3

[1] = target: T26, BSA conjugated peptide 17 (human, BSA conjugated (the added cysteine is printed at the N-terminus)); assay: ELISA, coated BSA conjugated peptide
T26 peptide: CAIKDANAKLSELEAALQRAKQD
Method: as §1, §3

BSA conjugated peptide 1 = target: T27, BSA conjugated peptide 1 (human, BSA coupled at the SH group of the C-terminal cysteine); assay: ELISA, coated BSA conjugated peptide
T27 peptide: B2 peptide
Method: as §1, §3

BSA conjugated peptide 2 = target: T28, BSA conjugated peptide 2 (human, BSA coupled at the SH group of the C-terminal cysteine); assay: ELISA, coated BSA conjugated peptide
T28 peptide: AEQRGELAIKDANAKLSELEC
Method: as §1, §3

[2] = target: B1; assay: flow cytometry competition, free peptide against biotinylated antibody on Isreco-1 cells
Method: 2.10⁵ Isreco-1 cells per 96-wells were incubated with a biotinylated antibody anti-CK8 (12.5 μg/mL) with or without peptide 1 or peptide 2 tested at different concentrations and incubated at 4° C. for 30 min. Unbound antibody was washed away with PBS (Invitrogen, Villebon sur Yvette, France) supplemented by 1% Bovine Serum Albumin (Sigma, St Quentin Fallavier, France). Subsequently, cells were centrifuged (5 min at 400 g) and bound antibody was detected with Phycoerythrin conjugated Streptavidin (Interchim, Montlucon, France) at 4° C. for 30 min. Detection reagent was washed away and cells were centrifuged (5 min at 400 g) and suspended in 300 μL PBS. Bound detection antibody was quantified on a FACS CAN (BD Biosciences, Rungis, France), (FL2 channel, 2 000 events per acquisition). During the experiment, the respective isotype controls were included to exclude any unspecific binding events. The presence of peptide 1 inhibits cell labelling with the mD-D6 or mD-A10 Mab without any significant impact on M20 Mab cellular staining.

## B1
Unconjugated peptide 1
  binding result: binds
Unconjugated peptide 5
  binding result: binds
Unconjugated peptide 6
  binding result: no binding (tested: from 10 ug/mL then diluted at 1/10)
Unconjugated peptide 7
  binding result: no binding (tested: from 10 ug/mL then diluted at 1/10)
Unconjugated peptide 8
  binding result: no binding (tested: from 10 ug/mL then diluted at 1/10)
Unconjugated peptide 9
  binding result: no binding (tested: from 10 ug/mL then diluted at 1/10)
Unconjugated peptide 10
  binding result: no binding (tested: from 10 ug/mL then diluted at 1/10)
Unconjugated peptide 11
  binding result: binds
Unconjugated peptide 12
  binding result: binds
Unconjugated peptide 13
  binding result: binds
Unconjugated peptide 14
  binding result: binds
Unconjugated peptide 15
  binding result: binds
Unconjugated peptide 16
  binding result: binds
Unconjugated peptide 17
  binding result: binds
Unconjugated peptide 18
  binding result: binds
Unconjugated peptide 19
  binding result: binds
Unconjugated peptide 20
  binding result: binds
Unconjugated peptide 21
  binding result: binds
Unconjugated peptide 22
  binding result: binds
Unconjugated peptide 23
  binding result: binds
Unconjugated peptide 24
  binding result: no binding (tested: from 10 ug/mL then diluted at 1/10)
Unconjugated peptide 25
  binding result: no binding (tested: from 10 ug/mL then diluted at 1/10)
Unconjugated peptide 26
  binding result: no binding (tested: from 10 ug/mL then diluted at 1/10)
Unconjugated peptide 27
  binding result: no binding (tested: from 10 ug/mL then diluted at 1/10)
Unconjugated peptide 28
  binding result: no binding (tested: from 10 ug/mL then diluted at 1/10)
BSA conjugated peptide 3
  binding result: no binding (tested: from 10 ug/mL then diluted at 1/10)
BSA conjugated peptide 4
  binding result: binds
[1]
  binding result: binds
BSA conjugated peptide 1
  binding result: binds
BSA conjugated peptide 2
  binding result: no binding (tested: from 10 ug/mL then diluted at 1/10)

## B2
[2]
  binding result: binds
